Reference: patent US20170173114A1, “METHODS AND COMPOSITIONS FOR INDUCTION OF UCP1 EXPRESSION” (Joslin Diabetes Center, Inc., priority 2014, published 2017)

Assays:
mature brown adipocytes [1] = assay: Glucose uptake in mature brown adipocytes; type: cell-based; conditions: vs control
Protocol: The following glucose uptake assay was used to determine whether FGF6 could impact cellular glucose uptake. Specifically, glucose uptake was monitored in WT-1 brown preadipocytes and 3T3-F442A white preadipocytes in the presence or absence of FGF6. After serum starvation in DMEM/H medium containing 1% of BSA for 2-3 h, cells were washed with HEPES buffer and then incubated with or without 100 nM insulin for 30 min in DMEM/H medium containing 1% of BSA. Glucose transport was determined by the addition of 2-deoxy-[3H]glucose (0.1 mM, 0.5 μCi/mL; PerkinElmer Life and Analytical Science, Waltham, Mass.). […] Cells were then lysed in 0.1% SDS, and glucose uptake was assessed in 4 mL of scintillant using Beckman LS6500 scintillation counter (Beckman Coulter, Indianapolis Ind.). Nonspecific 2-deoxy-[3H]glucose uptake was measured in the presence of cytochalasin B (20 μM) and was subtracted from the total uptake to get specific glucose uptake. Results were expressed as the mean±s.e.m. of the indicated number of experiments. The protein content was determined by the Bradford method.
To assess mitochondrial respiration, a Seahorse Extracellular Flux Analyzer (Seahorse Bioscience Inc., North Billerica, Mass.) was used to quantify oxygen consumption rates (OCR) of differentiated human brown adipocytes. […] After adipogenic induction for 8 days, OCR was analyzed. […]

RIP140 (NRIP1) = assay: RIP140 mRNA expression in brown and white preadipocytes; type: cell-based; conditions: 200 ng/mL, three or seven days
Protocol: (§1) Total RNA was isolated with QIAzol lysis reagent (Qiagen, Valencia, Calif.) and purified by RNeasy Mini columns (Qiagen) following the manufacture's instructions. cDNA was prepared from total RNA using the Advantage RT-PCR kit (BD Biosciences, Palo Alto, Calif.) according to manufacturer's instructions. Diluted cDNA was used in a PCR reaction with SYBR Green Master Mix (Applied Biosystems, Foster City, Calif.) and primers specifically designed for detection of the gene of interest. PCR reactions were run in duplicate for each sample and quantitated in the ABI Sequence Detection System (Applied Biosystems). Data were expressed as arbitrary units after normalization to levels of expression of internal controls for each sample. Sequences of primers for specific genes are each obtained from the published literature or designed using publically available gene sequence databases. Unless otherwise indicated, gene expression data described in the examples below was obtained using QPCR.
RIP140 directs DNA methylation and interacts with nuclear receptors to silence UCP1 expression and suppress mitochondrial biogenesis in white adipocytes (Kiskinis E. et al., EMBO J. 26:4831-4840, 2007; Powelka A. M. et al., J. Clin. Invest. 116:125-136, 2006; Wang H. et al., Mol. Cell. Biol. 28:2187-2200, 2008). […]

mature brown adipocytes [2] = assay: Oxygen consumption rate in mature brown adipocytes (Seahorse); type: cell-based; conditions: 24 hours; vs buffer
Protocol: To assess mitochondrial respiration, a Seahorse Extracellular Flux Analyzer (Seahorse Bioscience Inc., North Billerica, Mass.) was used to quantify oxygen consumption rates (OCR) of differentiated […] brown adipocytes. Wt-1 brown preadipocyte cells were seeded on 24-well format plates and allowed to adhere overnight. After adipogenic induction for 8 days, OCR was analyzed. To measure OCR […] oxidative phosphorylation, 0.5 μM oligomycin (EMD Chemicals Inc., Gibbstown, N.J.) was added to cells. Subsequently, 0.8 μM FCCP (carbonyl cyanide-p-trifluoromethoxyphenylhydrazone) and 1 μM respiratory chain inhibitors (rotenone) were added to measure maximal respiration and basal rates of nonmitochondrial respiration. As shown in FIGS. 23A and 23B, treatment of FGF6 enhanced oxygen consumption and glucose uptake in mature brown adipocytes. Thus, FGF6 was able to activate the mature brown adipocyte's ability to use glucose and increase energy expenditure without inducing UCP-1.

[3] = system: PPARγ, aP2, FAS, PRDM16, PGC1α, CIDEA; assay: Adipogenic and brown fat marker mRNA expression in WT-1 brown preadipocytes; type: cell-based, murine
Protocol: as §1
(§2) The effect of FGF6 on differentiation of WT-1 murine brown preadipocytes was also examined. WT-1 cells can be induced to undergo brown adipocyte differentiation, characterized by lipid accumulation and expression of adipogenic and brown fat markers, as described above (Klein et al. (1999) J Biol Chem 274:34795; Tseng et al. (2005) Nat Cell Biol 7:601). WT-1 cells were treated with FGF6 in growth media (DMEM+10% FBS), a vehicle control (“control” or “C” referred to in FIGS. 3A-D), or induction media (“induction” or “I” referred to in FIGS. 3A-D) as described above for seven days. Following the treatment, cells were examined for the color of the culture media in combination with oil Red O staining, expression of adipogenic markers, expression of brown fat markers, immunofluorescent staining of cells with UCP1 and DPAI, and Western blot analysis to determine the presence of UCP1 and β-tubulin. The results are described in FIGS. 3A to 3D.
FGF2, FGF6 and FGF9 were used at a dosage of 50 ng/mL, 100 ng/mL, 200 ng/mL or 300 ng/mL. FGF21 was used at the dosage of 50 ng/ml and 500 ng/mL. The concentration of BMP7 was 3.3 nM. RNA was isolated and UCP1 and PPARγ expression levels were evaluated by quantitative reverse transcription polymerase chain reaction (Q-RT-PCR) analysis after 24 hours (i.e., 1 day) (FIG. 14A), 2 days (FIG. 14B), 5 days (FIG. 14C) and 7 days (FIG. 14D) of treatment. All experiments were performed triplicate and the data are presented as mean+/−SEM.
FGF2, FGF6 and FGF9 were used at a dosage of 200 ng/mL. FGF21 was used at a dosage of 500 ng/mL. The concentration of BMP7 was 3.3 nM. mRNA was isolated and UCP1 and PPARγ expression levels were evaluated by quantitative reverse transcription polymerase chain reaction (Q-RT-PCR) analysis after 24 hours (i.e., 1 day), 2 days, 5 days and 7 days of treatment (FIG. 15). All experiments were performed triplicate and the data are presented as mean+/−SEM.

[4] = system: WT-1 murine brown preadipocytes; assay: Oil Red O staining of lipid accumulation in WT-1 cells; type: cell-based; conditions: WT-1, absence of induction cocktail
Protocol: Cell culture dishes were washed twice with phosphate-buffered saline and fixed with 10% buffered formalin overnight at 4° C. Cells were then stained for 2 hours at room temperature with a filtered oil red O solution (0.5% oil red O in isopropyl alcohol), washed twice with distilled water, and visualized.
as §2

B1: FGF6: fibroblast growth factor 6; recombinant human FGF from R&D Systems, or mouse FGF6 cDNA overexpressed by lentiviral vector (protein)
chain: KRQRRLYCNVGIGFHLQVLPDGRISGTHEENPYSLLEISTVERGVVSLFGVRSALFVAMNSKGRLYATPSFQEECKFRETLLPNNYNAYESDLYQGTYIALSKYGRVKRGSKVSPIMTVTHFLPRI
- glucose uptake in mature brown adipocytes (mature brown adipocytes [1]): enhanced
- reduction of RIP140 mRNA expression (RIP140 (NRIP1)): 50-80%
- oxygen consumption in mature brown adipocytes (mature brown adipocytes [2]): enhanced
- PPARγ expression level, time course ([3]; 200 ng/mL with insulin and T3, 1, 2, 5, 7 days): very low levels of PPARγ
- PPARγ expression level ([3]; 50-300 ng/mL with insulin and T3, 1, 2, 5 and 7 days): very low levels of PPARγ
- expression of transcriptional regulators of UCP1 (PGC1α, PPARγ, PRDM16) ([3]; 50-300 ng/mL, three days): did not increase
- mRNA expression of other brown fat markers (PRDM16, PGC1α, CIDEA) ([3]; WT-1, seven days): did not, in contrast, have as significant an impact
- mRNA expression of adipogenic markers (PPARγ, aP2, FAS) ([3]; WT-1, seven days, control, induction media or FGF6): only the induction media significantly increased each of the adipogenic markers
- lipid accumulation by Oil Red O staining [4]: very little to no lipid accumulation
